Laboratory results as given in PMC9731694, “SRSF5‐Mediated Alternative Splicing of M Gene is Essential for Influenza A Virus Replication: A Host‐Directed Target Against Influenza Virus” (Advanced Science, 2022).

Target: T1, GST-U1A-His (human (amplified from A549 cells), UniProt P09012 1-282)
T1 construct: also called GST tagged U1A-His
Experiment: pull-down; GST pulldown: 300 ng purified SRSF5-Flag with 150 ng glutathione-bound GST-tagged protein, 300 µL, 1 h at 4 °C; 50 mM Tris pH 7.5, 200 mM NaCl, 10% glycerol, 0.5% Triton-X-100, RNaseA; blot with anti-Flag or anti-His
Conditions: both partners purified

T1 sequence (P09012 whole entry): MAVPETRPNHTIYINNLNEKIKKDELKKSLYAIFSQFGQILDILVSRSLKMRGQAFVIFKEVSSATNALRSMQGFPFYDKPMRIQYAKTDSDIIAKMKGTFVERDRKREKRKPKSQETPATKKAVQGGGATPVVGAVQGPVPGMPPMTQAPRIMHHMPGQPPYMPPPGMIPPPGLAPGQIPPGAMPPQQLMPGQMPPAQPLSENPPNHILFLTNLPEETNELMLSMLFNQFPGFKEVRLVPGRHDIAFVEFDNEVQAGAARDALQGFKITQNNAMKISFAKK

B1: purified recombinant SRSF5-Flag (natural protein, human, UniProt Q13243 1-272, looked up)
chain: MSGCRVFIGRLNPAAREKDVERFFKGYGRIRDIDLKRGFGFVEFEDPRDADDAVYELDGKELCSERVTIEHARARSRGGRGRGRYSDRFSSRRPRNDRRNAPPVRTENRLIVENLSSRVSWQDLKDFMRQAGEVTFADAHRPKLNEGVVEFASYGDLKNAIEKLSGKEINGRKIKLIEGSKRHSRSRSRSRSRTRSSSRSRSRSRSRSRKSYSRSRSRSRSRSRSKSRSVSRSPVPEKSQKRGSSSRSKSPASVDRQRSRSRSRSRSVDSGN
notes: also called hSRSF5-Flag; Flag-SRSF5
  binding result: binds
